T1: CD19 (human, UniProt P15391 20-556)
T1 construct: whole, on cells; also called CD19 on NALM-6 cells
T1 sequence (looked up): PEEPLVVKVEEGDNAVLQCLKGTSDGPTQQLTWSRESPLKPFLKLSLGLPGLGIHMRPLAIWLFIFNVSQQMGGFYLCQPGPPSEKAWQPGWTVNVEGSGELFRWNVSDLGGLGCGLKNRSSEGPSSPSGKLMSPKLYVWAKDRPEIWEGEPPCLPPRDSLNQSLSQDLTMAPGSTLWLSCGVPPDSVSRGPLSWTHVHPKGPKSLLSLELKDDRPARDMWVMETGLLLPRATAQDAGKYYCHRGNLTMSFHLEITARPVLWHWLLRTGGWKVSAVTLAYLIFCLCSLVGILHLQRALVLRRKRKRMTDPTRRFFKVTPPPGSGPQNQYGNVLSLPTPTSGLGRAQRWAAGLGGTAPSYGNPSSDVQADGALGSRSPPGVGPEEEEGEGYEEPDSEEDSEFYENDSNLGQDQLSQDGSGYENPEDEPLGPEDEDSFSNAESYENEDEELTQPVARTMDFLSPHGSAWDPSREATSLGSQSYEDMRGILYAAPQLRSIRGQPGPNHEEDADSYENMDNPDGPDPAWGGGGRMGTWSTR

T2: Epithelial cell adhesion molecule (EpCAM) (human, UniProt P16422 24-314)
T2 construct: whole, on cells; also called 17-1A antigen; KSA
T2 sequence (looked up): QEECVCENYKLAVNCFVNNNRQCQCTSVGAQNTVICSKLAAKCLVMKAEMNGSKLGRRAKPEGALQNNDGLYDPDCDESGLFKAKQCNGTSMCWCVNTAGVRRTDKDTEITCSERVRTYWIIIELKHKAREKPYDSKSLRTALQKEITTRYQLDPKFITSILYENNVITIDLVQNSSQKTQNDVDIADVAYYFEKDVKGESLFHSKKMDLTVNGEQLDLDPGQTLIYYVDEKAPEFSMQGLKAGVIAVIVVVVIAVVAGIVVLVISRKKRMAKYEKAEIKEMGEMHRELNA


Columns and labels:
CD19 [1] = target: T1, CD19; experiment: FACS, purified constructs at 1 and 5 µg/ml on CD19-positive NALM cells
Procedure: Binding was measured by a FACS-based assay using CD3 enriched PBMCs (A) or CD19-positive NALM-cells (B). A secondary antibody with CD3 positive cells was used as a negative control in (A) and a secondary antibody with CD19 positive cells was used as a negative control in (B). Constructs anti-CD19×anti-CD3 and anti-EpCAM (M79)×anti-CD3 were used as controls. Assay was carried out with concentrations of 1 μg/ml and 5 μg/ml. MFI indicates mean fluorescence intensity.
(§1) In order to analyze the binding efficacy of the deimmunized constructs to CD3 and CD19 a FACS-based assay was performed. Initially, crude supernatants were tested for binding on CD3-enriched PBMCs or CD19-positive NALM-6 cells. Cells were incubated with non-diluted supernatants for 30 minutes at 8° C. Upon two wash steps the cells were labeled with an anti-His antibody (Qiagen) under the same conditions. After additional wash steps binding of the constructs was detected with a FITC-conjugated sheep anti-mouse antibody (Sigma). Cells were analyzed with a FACS Calibur cytometer (B&D). As controls supernatants of anti-CD19×anti-CD3 and GFP-transfected cells were included. […] The positive control, which was a non-deimmunized anti-CD19×anti-CD3 construct reached a MFI of around 60 showing that the deimmunized constructs comprising anti-CD3 (VH5/VL1) (SEQ ID NO.:190), anti-CD3 (VH5/VL2) (SEQ ID NO.:192), anti-CD3 (VH5/VL3) (SEQ ID NO.:194), anti-CD3 (VH7/VL1) (SEQ ID NO.:196), anti-CD3 (VH7/VL2) (SEQ ID NO.:198) and anti-CD3 (VH7/VL3) (SEQ ID NO.:200) bound CD3 with extremely high efficacy.

human CD3 [2] = target: T3, human CD3 (human, UniProt P07766 23-207; P04234 22-171; P09693 23-182); experiment: FACS, non-diluted crude supernatant on CD3-enriched PBMCs; anti-His + FITC anti-mouse
T3 construct: whole, on cells; also called CD3 antigen; human CD3 complex
Procedure: as §1

human CD3 [3] = target: T3, human CD3; experiment: FACS, purified construct at 0.5 µg/ml as printed, on CD3 positive cells
CD19 [4] = target: T1, CD19; experiment: FACS, crude supernatant on CD19-positive NALM-6 cells; negative control MFI ca. 3
Procedure: as §1
The FACS-based binding assay was also carried out for CD19. In this experiment CD19 and a secondary antibody was as a negative control. In this experiment, all assayed constructs achieved a MFI of at least 80 while the MFI of the negative control was ca. 3.

human CD3 [5] = target: T3, human CD3; experiment: FACS, culture supernatant on Jurkat cells; anti-His detection
Procedure: (§2) 250000 Jurkat cells (for CD3 binding) and Kato cells (for EpCAM binding) were independently incubated with cell culture supernatants (50 μl) containing the bispecific construct (pEF-DHFR-3-1×anti-CD3 (VH5/VL2) (Nr.50, SEQ ID NO.: 48) and pEF-DHFR-5-10×anti-CD3 (VH5/VL2) (Nr.54) (SEQ ID NO.:62), respectively) for 45 min. at 4° C. Thereafter, the cells were washed twice in FACS buffer (phosphate-buffered saline containing 1% fetal calf serum (FCS) and 0.05% sodium azide) and incubated with mouse anti-His antibody (Dianova, DIA910) for 60 min. at 4° C. Washing steps were performed as above.
(§3) The cells were finally incubated either with goat anti-mouse Ig-FITC-conjugated antibody (BD 550003) or with anti-mouse IgG conjugated with PE (Sigma, P8547). After washing steps, 10000 events were analysed using FACS Calibur (B&D).

[6] = target: T2, Epithelial cell adhesion molecule …; experiment: FACS, culture supernatant on Kato cells (for EpCAM binding); anti-His detection
Procedure: as §2, §3

Row | Binder | MFI (CD19 [1]) | MFI (human CD3 [2]) | fold over the negative control (secondary antibody only, MFI ca. 3.5) (human CD3 [2]) | MFI (human CD3 [3]) | MFI (CD19 [4]) | binding result (human CD3 [5]) | binding result [6]
1 | anti-CD19×anti-CD3 (VH5/VL1) (SEQ ID NO.:190) (bispecific antibody, As m4: bispecific single chain, His-tagged; also called pEF anti-CD19×anti-CD3 (VH5/VL1)) DIQLTQSPASLAVSLGQRATISCKASQSVDYDGDSYLNWYQQIPGQPPKLLIYDASNLVSGIPPRFSGSGSGTDFTLNIHPVEKVDAATYHCQQSTEDPWTFGGGTKLEIKGGGGSGGGGSGGGGSQVQLQQSGAELVRPGSSVKISCKASGYAFSSYWMNWVKQRPGQGLEWIGQIWPGDGDTNYNGKFKGKATLTADESSSTAYMQLSSLASEDSAVYFCARRETTTVGRYYYAMDYWGQGTTVTVSSGGGGSDVQLVQSGAEVKKPGASVKVSCKASGYTFTRYTMHWVRQAPGQGLEWIGYINPSRGYTNYADSVKGRFTITTDKSTSTAYMELSSLRSEDTATYYCARYYDDHYCLDYWGQGTTVTVSSGEGTSTGSGGSGGSGGADDIQMTQSPSSLSASVGDRVTITCRASQSVSYMNWYQQKPGKAPKRWIYDTSKVASGVPARFSGSGSGTDYSLTINSLEAEDAATYYCQQWSSNPLTFGGGTKVEIK | ~200 MFI | ≥ 90 MFI | ~25 fold | ≥ 40 MFI | ≥ 80 MFI |  | 
2 | anti-CD19×anti-CD3 (VH7/VL1) (SEQ ID NO.:196) (bispecific antibody, As m4: bispecific single chain, His-tagged; also called pEF anti-CD19×anti-CD3 (VH7/VL1)) DIQLTQSPASLAVSLGQRATISCKASQSVDYDGDSYLNWYQQIPGQPPKLLIYDASNLVSGIPPRFSGSGSGTDFTLNIHPVEKVDAATYHCQQSTEDPWTFGGGTKLEIKGGGGSGGGGSGGGGSQVQLQQSGAELVRPGSSVKISCKASGYAFSSYWMNWVKQRPGQGLEWIGQIWPGDGDTNYNGKFKGKATLTADESSSTAYMQLSSLASEDSAVYFCARRETTTVGRYYYAMDYWGQGTTVTVSSGGGGSDVQLVQSGAEVKKPGASVKVSCKASGYTFTRYTMHWVRQAPGQGLEWIGYINPSRGYTNYNQKFKDRVTITTDKSTSTAYMELSSLRSEDTAVYYCARYYDDHYCLDYWGQGTTVTVSSGEGTSTGSGGSGGSGGADDIQMTQSPSSLSASVGDRVTITCRASQSVSYMNWYQQKPGKAPKRWIYDTSKVASGVPARFSGSGSGTDYSLTINSLEAEDAATYYCQQWSSNPLTFGGGTKVEIK | ~200 MFI | ≥ 90 MFI | ~25 fold | ≥ 40 MFI | ≥ 80 MFI |  | 
3 | anti-CD19×anti-CD3 (VH7/VL2) (SEQ ID NO.:198) (bispecific antibody, As m4: bispecific single chain, His-tagged; all other places say VH7/VL2) DIQLTQSPASLAVSLGQRATISCKASQSVDYDGDSYLNWYQQIPGQPPKLLIYDASNLVSGIPPRFSGSGSGTDFTLNIHPVEKVDAATYHCQQSTEDPWTFGGGTKLEIKGGGGSGGGGSGGGGSQVQLQQSGAELVRPGSSVKISCKASGYAFSSYWMNWVKQRPGQGLEWIGQIWPGDGDTNYNGKFKGKATLTADESSSTAYMQLSSLASEDSAVYFCARRETTTVGRYYYAMDYWGQGTTVTVSSGGGGSDVQLVQSGAEVKKPGASVKVSCKASGYTFTRYTMHWVRQAPGQGLEWIGYINPSRGYTNYNQKFKDRVTITTDKSTSTAYMELSSLRSEDTAVYYCARYYDDHYCLDYWGQGTTVTVSSGEGTSTGSGGSGGSGGADDIVLTQSPATLSLSPGERATLSCRASQSVSYMNWYQQKPGKAPKRWIYDTSKVASGVPARFSGSGSGTDYSLTINSLEAEDAATYYCQQWSSNPLTFGGGTKVEIK | ~200 MFI | ≥ 90 MFI | ~25 fold | 25 MFI | ≥ 80 MFI |  | 
4 | anti-CD19×anti-CD3 (VH7/VL3) (SEQ ID NO.:200) (bispecific antibody, As m4: bispecific single chain, His-tagged; also called pEF anti-CD19×anti-CD3 (VH7/VL3); anti-CD3 (VH7/VK3)) DIQLTQSPASLAVSLGQRATISCKASQSVDYDGDSYLNWYQQIPGQPPKLLIYDASNLVSGIPPRFSGSGSGTDFTLNIHPVEKVDAATYHCQQSTEDPWTFGGGTKLEIKGGGGSGGGGSGGGGSQVQLQQSGAELVRPGSSVKISCKASGYAFSSYWMNWVKQRPGQGLEWIGQIWPGDGDTNYNGKFKGKATLTADESSSTAYMQLSSLASEDSAVYFCARRETTTVGRYYYAMDYWGQGTTVTVSSGGGGSDVQLVQSGAEVKKPGASVKVSCKASGYTFTRYTMHWVRQAPGQGLEWIGYINPSRGYTNYNQKFKDRVTITTDKSTSTAYMELSSLRSEDTAVYYCARYYDDHYCLDYWGQGTTVTVSSGEGTSTGSGGSGGSGGADDIVLTQSPATLSLSPGERATLTCRASSSVSYMNWYQQKPGKAPKRWIYDTSKVASGVPARFSGSGSGTDYSLTINSLEAEDAATYYCQQWSSNPLTFGGGTKVEIK | ~200 MFI | ≥ 90 MFI | ~25 fold | ≥ 40 MFI | ≥ 80 MFI |  | 
5 | 5-10×anti-CD3 (VH5/VL2) (SEQ ID NO.:63) (bispecific antibody, Bispecific single chain with anti-EpCAM at the N-terminus; tested as CHO culture supernatant; detected by anti-His; also called pEF-DHFR-5-10×anti-CD3 (VH5/VL2); Nr.54) ELVMTQSPSSLTVTAGEKVTMSCKSSQSLLNSGNQKNYLTWYQQKPGQPPKLLIYWASTRESGVPDRFTGSGSGTDFTLTISSVQAEDLAVYYCQNDYSYPLTFGAGTKLEIKGGGGSGGGGSGGGGSEVQLLEQSGAELVRPGTSVKISCKASGYAFTNYWLGWVKQRPGHGLEWIGDIFPGSGNIHYNEKFKGKATLTADKSSSTAYMQLSSLTFEDSAVYFCARLRNWDEPMDYWGQGTTVTVSSGGGGSDVQLVQSGAEVKKPGASVKVSCKASGYTFTRYTMHWVRQAPGQGLEWIGYINPSRGYTNYADSVKGRFTITTDKSTSTAYMELSSLRSEDTATYYCARYYDDHYCLDYWGQGTTVTVSSGEGTSTGSGGSGGSGGADDIVLTQSPATLSLSPGERATLSCRASQSVSYMNWYQQKPGKAPKRWIYDTSKVASGVPARFSGSGSGTDYSLTINSLEAEDAATYYCQQWSSNPLTFGGGTKVEIK |  |  |  |  |  | binds | binds

From patent publication US20090022738A1 (MICROMET, published 2009)
